In US20090264359A1, “FPLR-1 INHIBITORS FOR USE IN DISEASES INVOLVING AMYLOID-INDUCED INFLAMMATORY EVENTS (FLIPR AND FLIPR-LIKE) AND IMMUNECOMPLEX-[…] DISEASES” (published 2009):

Tests used:
[1] = molecular target: FPR on human neutrophils and monocytes (human, UniProt P21462); experiment: cell-based or functional assay
[2] = molecular target: FcγRs on human neutrophils and peripheral blood monocytes

B1: FLIPr-like (other)
chain: FFSYEWKGLEIAKNLADQAKKDDERADKLIKEADEKNEHYKGKTVEDLYVIAKKMGKGNTIAVVKIKDGGKNGYYTFDITRPLEEHRKNIPVVKNGEIDSITWY
modifications: FITC label in the flow cytometric binding assays (FLIPr-like-FITC); unlabelled elsewhere
For B1, the “FPR blocking activity (fMLF-induced activation of neutrophils)” value [1] was roughly 100 fold and the minimal effective concentration in phagocytosis by human neutrophils [2] was 0.19 µg/mL.
